Data as given in patent US20060275211A1.
Each block holds one binder with its values, some of them ahead of it.

Target: Tag5-161P2F10B, purified recombinant extracellular domain (ECD) of 161P2F10B (amino acids 46-875) (human) (UniProt O14638)
Test: SPR, MAb captured on CM5 chip, recombinant 161P2F10B 1-100 nM injected

Kd: 26 nM
koff: 0.00083 s⁻¹
kon: 32000 M⁻¹ s⁻¹
B1: H16-1.29.1.1 (antibody, part only; not given: light chain, V domains shown, part only)
VH: CRLVESGAEVKKPGASVKVSCKASGYTFTGYYMHWVRQAPGQGLEWMGWINPNSGGTNYAQKFQGRVTMTRDTSISTAYMELSRLRSDDTAVYYCARDQVDIVATRYYYYYYGMDVWGQGTTVTVSSASTKGPSVFPLAPSSKST

Kd: 9.8 nM
koff: 0.00036 s⁻¹
kon: 37000 M⁻¹ s⁻¹
B2: H16-1.92.1.1 (antibody, part only; not given: light chain, V domains shown, part only)
VH: EVLLVESGPGLVKPSETLSLTCTVSGGSISSSSYFWGWIRQPPGKGLEWIGSIYYSGNTYYNPSLKSRVTISVDTSKNRFSLKLSSVTAADTAVYCCASATTVTTAFDIWGQGTMVTVSSASTKGPSVFPLAPSS
